Reference: PMC3317499

B1: Myc-Mal-TIR wild type (TIR domain of human MyD88 adaptor-like protein, residues 79-221, double-tagged with His6 and Myc) [human] / GST-Mal-TIR (TIR domain of human Mal, residues 79-221, GST fusion) [human] (parent)
chain 1: SSRWSKDYDVCVCHSEEDLVAAQDLVSYLEGSTASLRCFLQLRDATPGGAIVSELCQALSSSHCRVLLITPGFLQDPWCKYQMLQALTEAPGAEGCTIPLLSGLSRAAYPPELRFMYYVDGRGPDGGFRQVKEAVMRYLQTLS
chain 2: B1 chain 1

Variants of: B1
Experiment: GST pull-down, quantified Western blot
Conditions: with GST-Mal-TIR (TIR domain of human Mal, residues 79-221, GST fusion) [human]; n = 3 separate experiments; parent: 1; read off a plot

Variant	ratio to parent
chain 1 D9A	1.2
chain 1 R114A	0.91
chain 1 W78A	0.6
chain 1 Y81A	0.41
